The supplement of paper PMC9112550, “Optimization of the antimicrobial peptide Bac7 by deep mutational scanning” (BMC Biology, 2022)

System: Escherichia coli TOP10
Assay: shrunken log2 fold change of peptide-encoding DNA abundance (4.5 h post-induction vs induction); higher = less antimicrobial activity (less host growth inhibition)
Settings: time post-induction: 4.5 h; library: site-saturation at positions 5, 18, 19, 20
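Also: peptides expressed intracellularly from a pBAD plasmid library in pooled LB shake-flask culture, induced with 0.3% L-arabinose, DNA abundance read by NGS, three biological replicates, DESeq2 with apeglm shrinkage.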

Sequence	shrunken log2 fold change
RRIRHRPPRLPRPRPRPGWNPRP	0.0316
RRIRNRPPRLPRPRPRPHSHPRP	-0.472
RRIRQRPPRLPRPRPRPDIIPRP	-0.0199
RRIRLRPPRLPRPRPRPLMWPRP	0.115
RRIRLRPPRLPRPRPRPIVNPRP	-0.803
RRIRSRPPRLPRPRPRPEFEPRP	0.731
RRIRLRPPRLPRPRPRPVKEPRP	0.0114
RRIRNRPPRLPRPRPRPPWSPRP	-0.294
RRIRYRPPRLPRPRPRPQWMPRP	-0.19
RRIRRRPPRLPRPRPRPRMDPRP	2.27
RRIRDRPPRLPRPRPRPNGKPRP	-0.181
RRIRVRPPRLPRPRPRPVDGPRP	0.021
RRIRARPPRLPRPRPRPEDWPRP	1.63
RRIRNRPPRLPRPRPRPTNLPRP	-0.0193
RRIRVRPPRLPRPRPRPNWKPRP	-0.0426
RRIRYRPPRLPRPRPRPNPQPRP	-0.0909
RRIRMRPPRLPRPRPRPYMNPRP	-0.737
RRIRYRPPRLPRPRPRPVMPPRP	0.047
RRIRVRPPRLPRPRPRPAWSPRP	0.192
RRIRARPPRLPRPRPRPEEYPRP	-0.0897
RRIRLRPPRLPRPRPRPPLDPRP	0.436

Sequence	shrunken log2 fold change
RRIRNRPPRLPRPRPRPPHLPRP	0.155
RRIRLRPPRLPRPRPRPWNMPRP	-0.31
RRIRSRPPRLPRPRPRPQGQPRP	-0.154
RRIRQRPPRLPRPRPRPIHYPRP	0.0133
RRIRYRPPRLPRPRPRPSCFPRP	-0.361
RRIRGRPPRLPRPRPRPQFLPRP	-0.0259
RRIRFRPPRLPRPRPRPKQSPRP	0.328
RRIRRRPPRLPRPRPRPMYMPRP	-0.212
RRIRPRPPRLPRPRPRPKYCPRP	-0.91
RRIRDRPPRLPRPRPRPSDDPRP	0.126
RRIRARPPRLPRPRPRPCWDPRP	-0.102
RRIRCRPPRLPRPRPRPQTFPRP	-0.139
RRIRIRPPRLPRPRPRPDPFPRP	0.261
RRIRDRPPRLPRPRPRPENPPRP	0.783
RRIRQRPPRLPRPRPRPGQLPRP	-0.0292
RRIRGRPPRLPRPRPRPGIVPRP	0.957
RRIRSRPPRLPRPRPRPLAGPRP	0.225
RRIRYRPPRLPRPRPRPFELPRP	-0.529
RRIRPRPPRLPRPRPRPFMFPRP	-0.361
RRIRFRPPRLPRPRPRPMEPPRP	0.039
RRIRTRPPRLPRPRPRPELHPRP	0.396

Sequence	shrunken log2 fold change
RRIRGRPPRLPRPRPRPRVPPRP	0.356
RRIRGRPPRLPRPRPRPVYAPRP	0.0566
RRIRDRPPRLPRPRPRPYNFPRP	-0.0811
RRIRQRPPRLPRPRPRPMKAPRP	0.181
RRIRDRPPRLPRPRPRPCFMPRP	0.0118
RRIRTRPPRLPRPRPRPTTRPRP	0.223
RRIRVRPPRLPRPRPRPVIGPRP	0.183
RRIRIRPPRLPRPRPRPNWKPRP	-0.00224
RRIRARPPRLPRPRPRPFCMPRP	0.0299
RRIRCRPPRLPRPRPRPFVWPRP	0.0706
RRIRGRPPRLPRPRPRPYGEPRP	0.398
RRIRARPPRLPRPRPRPQEPPRP	0.744
RRIRPRPPRLPRPRPRPLVYPRP	-0.0742
RRIRLRPPRLPRPRPRPKWRPRP	0.39
RRIRHRPPRLPRPRPRPMILPRP	-0.0484
RRIRHRPPRLPRPRPRPAPLPRP	0.16
RRIRWRPPRLPRPRPRPHTRPRP	-0.0595
RRIRKRPPRLPRPRPRPIKNPRP	-0.188
RRIRVRPPRLPRPRPRPCTVPRP	-0.14
RRIRCRPPRLPRPRPRPDKIPRP	-0.24
RRIRERPPRLPRPRPRPDHMPRP	-0.0199
